The supplement of paper PMC9170038

Test system: MS2 coat protein
Experiment: apparent KD of MS2 coat protein; higher = weaker reporter binding
Conditions: Eterna round: R107
How it was run: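 Values are apparent KD, taken as the median for each design of fits to normalised binding curves from individual clusters. The designed RNA switches were transcribed on-chip from Illumina sequencing clusters and exposed to SNAP-549-labelled MS2 coat protein at twofold increasing amounts from 0.7 or 1.5 nM to 3 µM. Titration used 100 mM Tris-HCl pH 7.5, 80 mM KCl and 4 mM MgCl2, without or with constant ligand.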

[1] = input ligand: theophylline 20 uM
[2] = input ligand: theophylline 2 mM
[3] = input ligand: tryptophan 2.4 mM

| Sequence | apparent KD of MS2 coat protein (input ligand: arginine 13.2 mM) [nM] | apparent KD of MS2 coat protein [1] [nM] | apparent KD of MS2 coat protein [2] [nM] | apparent KD of MS2 coat protein [3] [nM] | apparent KD of MS2 coat protein (input ligand: none) [nM] |
| --- | --- | --- | --- | --- | --- |
| AAACUUCGCAUAGGAAAACUAUGUGAAGAUCGAGGACCGGUACGGCCGCCACUCGUCCUCAACAUGAGGAUCACCCAUGUAAUAA [Mat - Exclusion - Trytophan A - D3] | 22.8 | 23.7 | 23 |  |  |
| AUAUGAUCAUGUGAUACCAGAAAUGGUAUUCCUCGCUGGAUUACAUGAGGAUCACCCAUGUUCCCUUGGCAGCAUAUGAUCAUAU [#01 Exclusion-TheophyllineB] | 21.3 | 36.3 |  | 20.9 |  |
| UACUUGCGGUCGGCCGCCACUACGAGGCAGACCUUCACAUGAGGAUCACCCAUGUAGUCGGCUAGUAGGACCGGGAUGGCAUAAA [Solasoce] | 28.6 | 41.9 | 41.8 | 16.3 | 29.2 |
| UCGCGAGAGGGAAGGAGCGUCAGCUGAGUCACAUGAGGAUCACCCAUGUCGCACAUAGUGUGACAGGUAGGUCGCCCUCCGCCCU [Leinticees] | 99.6 | 248 | 192 | 157 | 134 |
| UAUCGUCAGACGGCCGCCACUAGAACAUGAGGAUCACCCAUGUAGUGGCCGGAUACCUCAAUAACUAGGACCGGGUCUGACGAAU [(Trp1)-(Ms2)-(T)'-(M)'-(Trp2)_Design17] | 36.6 | 96.5 | 54 | 32.7 | 52.2 |
| AGUCUUAAUGGAAGGAGCGCAGUCAUAACAUGAGGAUCACCCAUGUCGAGGUGAGGGUCAUUGCAGGUAGGUCGCCAUACUAGGA [Same State - Arginine B (Freestyle 2)] | 84.6 | 264 | 240 | 131 | 181 |
| CCAUAAGUACCGGUCCUCAGAUCCUCAUGACGAGGACCGGUACGGCCGCCACUCGAAACAUGAGGAUCACCCAUGUAAUAAUAUC [Brourdmod17] | 25.5 | 53.1 | 66 |  |  |
| UUGCUCUCUUCGGCCGCCACUACACGCGAGUUGACGACUGGCGGACAUGAGGAUCACCCAUGUCAUAGGACCGGGAAUCACGCUG [theeternabot_sameState_MS2_Trp_B_11] | 11.5 | 15.9 | 15.2 |  |  |
| GAUGAUAUUGCAGAUACCAGACACAUGAGGAUCACCCAUGUCGCUGGGUUACUGGAUCGUGUCCCUUGGCAGCUGCGAUAUCAUC [Austria] | 69.7 | 379 |  | 294 |  |
| GGAAAAUAUAGGGAUACCAGAUAUGGCGUUGACAUGAGGAUCACCCAUGUCUUAGCAGUGAUCCCUUGGCAGCCCACACCAUCCG [theeternabot_sameState_MS2_Theo_B_13] | 40.9 | 61.3 |  | 64.5 |  |
| CGAUAUAAGACGGCCGCCACUAUUAAGUAUCAAAAUAAACAUGAGGAUCACCCAUGUACAUGGGAUAGGACCGGGUCCAAUAACG [A2] | 40.7 | 123 | 208 | 70.2 | 128 |
| CCGUCACAUGAGGAUCACCCAUGUGCGGAAGGAGCGGACGAUAGUCCAGGUAGGUCGCCGUAUAGCCAAUGACCAGCAGUGUCGG [XARG-A 22] | 12.4 | 16.6 | 14.8 | 15 | 13.9 |
| CGGCCCUCAGAUGAGGAUCACCCAUCUGAUACCAGCCUGGAAACAGGCCCUUGGCAGCAGAAGGUCAUCAAAGAUGACCAAGCCG [TheoAX 30 #OpenEnded #AlternativeMS2] | 10 | 19.4 | 89.1 | 12 | 11.8 |
| GACAUUAACUGAAGGAGCGAGGUAGAACGGGAUGAGCAUACAUGAGGAUCACCCAUGUGGCCUCAGGUAGGUCGCAGAUGAGAUU [Exclusion Arginine B GF25] | 83.4 | 201 | 203 | 179 | 175 |
| GGAAGCAGGACUGAUACCAGUCCAGCGAAUCAUACGACGCAACAUGAGGAUCACCCAUGUGACCCUUGGCAGCAGACUGCUACCG [Same State Theophylline B GF 27] | 33.1 | 37.2 |  | 32.2 |  |
| GUCCUAAGGUCGGCCGCCACUGUAGAGUGUGAGCCAUCACAUGAGGAUCACCCAUGUUGUUGCUAUAGGACCGGGAUUGUAGGAC [#22 Exclusion Tryptophan B] | 13.5 | 15.5 | 12.6 |  |  |
| GGGCGCUAUCCCGCGAGGGAUAGCGUUCAACGAGGACCGGUACGGCCGCCACUCGAACGAGUGGUGACAUGAGGAUCACCCAUGU [Iaa] | 39.9 | 66.4 | 53.3 | 56.4 | 42.5 |
| CCUAUGCAGUCGGCCGCCACUGAUAAAGUUAUCUUUACCUCAGAAACAUGAGGAUCACCCAUGUACAGGACCGGGACUGUAUAGG [Ex Tryptophan B 18] | 14.8 | 14.6 | 15.9 |  |  |
| AGGACGGUCGGAAGGAGCGGUACAUGAGGAUCACCCAUGUACUUAUGGGCAUCCGUAGAGUGCCAGGUAGGUCGCCGAUUGCGGG [XArg-B11] | 17.2 | 29 | 21.8 | 34.1 | 33 |

| Sequence | apparent KD of MS2 coat protein (input ligand: arginine 13.2 mM) [nM] | apparent KD of MS2 coat protein [1] [nM] | apparent KD of MS2 coat protein [2] [nM] | apparent KD of MS2 coat protein [3] [nM] | apparent KD of MS2 coat protein (input ligand: none) [nM] |
| --- | --- | --- | --- | --- | --- |
| ACACAUGAGGAUCACCCAUGUGCCCAUGAAGGAGCGUGGGAAACCACAGGUAGGUCGCAUGACAUGAGGAUCACCCAUGUUUAUU [Astarte] | 29 | 44.9 | 39.7 | 41.9 | 41.9 |
| CUGCCAUGCAGAGAUACCAGUGCGCUCAGCACAUGAGGAUCACCCAUGUUGGCUGCCGAUCACCCUUGGCAGCUCUGCAUGGCAG [#04 Same State - Theophylline B] | 10.9 | 12.5 |  | 8.66 |  |
| AAAUAAAUACAUGAGGAUCACCCAUGUGAAGGAGCGGCCGUUAGGCCAGGUAGGUCGCACAUGAAAGGGAAGCGAAAGAAAUAAU [MAT - Exclusion Arginine A - Mod of Eli - D7] | 12.2 | 25.9 | 19 | 19.2 | 18.1 |
| UAACAUGAGGAUCACCCAUGUUUAGAUGAACGAGGACCGGUACGGCCGCCACUCGAUAAGUGGCAAGAACGAGGGAUUGUAUGCU [Same State Trp A GF3] | 12.7 | 22.6 | 11.7 | 13.2 | 13.8 |
| GCUAGUGGCAGAAGGAGCGGCAUACUUGCAAGUGACAUGAGGAUCACCCAUGUAAGGGAAUGCCAGGUAGGUCGCUGCCACUAGC [EAB NP+V+V2 #1 +-Same Structure] | 34.9 | 54.5 | 38.7 | 28.5 | 31.7 |
| ACAUGAGGAUCACCCAUGUGAAGGCACGAUACCAGCUGAUCCCGUGGCCCUUGGCAGCGUCCGGUGUGGUCCGGCGGAUGGGACG [xwxmullin] | 19.1 | 23.3 | 30.9 | 26.4 | 25 |
| UUAUAUUCUCAAUCGCCAUGUGCUUUAGAUACCAGUCUGAUAAAUGACCCUUGGCAGCUAGAGACAUGAGGAUCACCCAUGUCUU [theeternabot_exclusion_MS2_Theo_A_8] | 11.3 | 13.9 |  | 11.2 |  |
| GGACUAACCAGAAGGAGCGACGCGCAGAAACUGCAAAAUCCUCCACACGAGGAUCACCCGUGUCAGGUAGGUCGCUGGUUAGUCG [ArgXB 16 #CuTurnoff #MS2Left #StaticStem #Blueprint] | 30.2 | 36.1 | 27.2 | 31.3 | 26.6 |
| UAGUACAUGAGGAUCACCCAUGUCGGAGGUCGAGGACCGGUACGGCCGCCACUCGGUCAUGCCCUACGAUACGACAGGAAUCUGU [theeternabot_sameState_MS2_Trp_A_28] | 21.8 | 36.5 | 28.9 |  |  |
| AAAUAAAUAACUGAUACCAGUGGACUGACAUGAGGAUCACCCAUGUUGGGUUUUGUUGUCCACCCUUGGCAGCGGGCAUAUAAAA [#25 Exclusion-TheophyllineB] | 23.4 | 38.4 |  | 26.8 |  |
| GCACUACAUGAGGAUCACCCAUGUGCAGAUACCAGAGGUGUAUGCCUCCCUUGGCAGCUGCGUCGCUCUGGAAACUUAUUGGUUU [Same State Theophylline A GF17] | 18.3 | 26.6 |  | 18.6 |  |
| ACAUCUUGUACGGCCGCCACUAACAGAUUCAGCGUCGGAGCCAACUACAUGAGGAUCACCCAUGUUAGGACCGGGUACUGUCCAC [theeternabot_exclusion_MS2_Trp_B_47] | 15.8 | 20.7 | 21 |  |  |
| AAUUUGUCGGGUGAUACCAGCCUCGGCGCGUCUCGCGCUGAACAUGAGGAUCACCCAUGUGGCCCUUGGCAGCACAUGACAAAUC [Raracere] | 367 | 557 |  | 677 |  |
| CCUGACAUGAGGAUCACCCAUGUGUGAGCACGAGGACCGGUACGGCCGCCACUCGCGUUGCCGGCCGGACUAUCUGGCGAAGUCA [theeternabot_sameState_MS2_Trp_A_10] | 28.3 | 39.6 | 41.4 |  |  |
| UGUCAGCGAAAGUUGACAUGCAGUGCCGGUCGAGGACCGGUACGGCCGCCACUCGAUCUCUCGUACAUGAGGAUCACCCAUGUCG [SS Tryp A #19] | 14.4 | 16.6 | 14.9 |  |  |
| UAUCGACACUGAAGGAGCGAGAUGACAAACAUGAGGAUCACCCAUGUUAUGGGUUGUUAAUCUCAGGUAGGUCGCAGUGGUCGCA [Same State Arginine B GF 18] | 67.8 | 130 | 108 | 85.7 | 93.3 |
| GAUCCUCGUACGGAUACCAGCGACUAACAUGAGGAUCACCCAUGUGAUAAAGAAAAUAUUUGCCCUUGGCAGCCGAAUAGAUAGU [#21 Same State - Theophylline B] | 36.5 | 91.5 |  | 74.2 |  |
| AGCCUAUUACAUGAGGAUCACCCAUGUGAUACCAGUCAGGAAACUGACCCUUGGCAGCGCAUGAGGAUCACCCAUGCGCGAGGCA [Omei Theo A Exc A v4] | 10.1 | 12.9 |  | 10.6 |  |
